Laboratory results reported in the DeepSol protein solubility set.

Assay: soluble on expression in E. coli; label from the status in PepcDB or PDB records

Sequence | soluble on expression in E. coli
MSLADERIEVLKDILLELHHGASAESVQERFNQHFKGVSAIEISMMEHELMNADTGITFEDVMGLCNVHANLFKGAIADVDVPDAEQEGHPVKVFKDENLALRAAIMRIRRIIENYTKPENEDFRQEILKGLKHQFDLLGQFYHHYTRKEKLFFPIMERYGHDSPPKVMWGVDDDIRDLFKDAKATLAKLPDGSIEELSQKFEAFAKEFEEMIFKEEAILLMILLESFTQDDWLQIASESDAYGYAILKPTEKWIPHRESFDNEADADTSDNQLADALNQVQDANSPEGTNTKVINTPEGQFTITFKPKEKEAAADRTTQQPFGNGYLSVEQANLILNHLPLEITFVNKDDIFQYYNDSVPAAEMVFKRTPSQVGRNVELCHPPKVLDKVKKVFELLRNGQRDKVNMWFQSERLGKFVYVTYAAVRDQAGDFQGVLEYVQDIKPFFELDSEFNRDEGHHHHHH | soluble
GPGSMLGSPLFPVAMDSFFDEDECERLGVWEDPRCLRAAEYTQCVATIRALIEQYGVAAAPLHTVKDAAQFLRFEASSAVSHPPMRESAVSYTVKSYGEASKKCVSEANNIVLSSLCMNDACVAGNAADGTDVALEKVFIVCEGFLIFGYPELCNMFDFFVFVHSDNETACLRRFFRGSRRKKRKPQGGNCDRILRMRTSRVNAELWSSEGAAANKTLSPSFSSVLPHLKYMPPQPSSPNDYQGFWLQSEYKELPPPMPFGMSGLKAPPYDWLEVKDLQYVKQMLHQWANASCVDDVEGVLGRYFEFRYWFYYEVLFYHYQLRGISEENVTTACQAKGTTKTSPSQSVLHIKNDASVSCVMLDSQLLALAQQVSGDLINGEGEVRLLLGWN | not soluble
MGSDKIHHHHHHMKLFRPVDGRPNSGSSCILRSYYIIMAYMSMPIASQRQEKDMTEDIRSRIGLRPVINVSGTMTSLGASIVVPEAVEAMAAILPQFVEINDLQRKASAIIARLTGGEAGFVTASCSSGISLAVAGAITGNNLLAIEKLPDIAPEKNEVLVQMGHVVSYGAPVDQAIRLGGGKVVLVGQATSTHRYHMENAITEKTAAAVYVVSHHVVDYGLLHLSEFVEIAHAKGVPVIVDAASEYDLELFLATGADVVLYSGHKFLGGPTSGIVAGSKELVRHAFLQNMGIGRGMKVGKESIYGVMAALEAWEKRDHAGIRERETGYLNLWKKTLDGRPGVTALIEPDPTNNPLDRMRVIIDADEAHITAWDLTTALARGNPPIITRDHEVEHRYFYLDPCNLHPGQETIVASRLAEELDKARASNEMIATPFEDRSRHRFDGMLCWPD | not soluble
MSLDTYTTSEVADLIGVHPNTVRLYEELNLIPKPKRNTNGYRIFNDFHIEQFRFARTALKIEVVQRGLRKDALEIVRTSANRDFDKAISLVNQYLQQLEIEKSNAEEALTIVAQILNGNTPETNKLFLTRKETAEHLNEGHHHHHH | not soluble
MSLKAIAVDMDGTFLDSKKTYDKPRFEAIFTELRNRDITFIAASGNQYAKLKSIFGDRDMYFISENGAVIYKGNELYNYKSFNRQVFQQVVDYLNMNQSIDQLVICGLKSAYILKHTSEAFKEDTRFYYHQLKEIDSLQQLPEDDYVKIAFNINRETHPNVDEEVATQFSNDIKLVSSGHDSIDIIMPNMTKGQALKRLLDKWEMSPSELMAFGDANNDKDMLAFAKHSYVMENSHDEELFNIASAVAPSNDKQGVLTIIEQEVLNKEGHHHHHH | soluble
MDREVEAQIGLNNVKILKSNILDSDEGKLFLKFGDEDLVIGELESLKAIQSTETILCPKPFGIIRRNGSYSLITSYIDFQLRKDWALAGSQLAKMHAKNGEQLAQNARRTRFVSVNSGMSDISKSEEGEQIGTENFGFHVTTCCGRLGQENDWTETWEEFFIRHRLKPQIDRLIETHNDRQLFELSEILYTKTAKLLKCRENVLPSLVHGDLWGGNWSMTTADGAPEPIIFDPSSSYSDPEFEFGIMKMFGGWTQDFENKYEKIIKTADGKNQRVLLYELYHNLNHWNHFGNSYRKKEKKLDKIYNNVYNNCYNNVRKNYCTKRITPKSGKLRNKAVRHPDFLANGIRRSPNLNFRSAIVICRSPFAAQPWYVAQLSKLEVMITDLIQM | not soluble
MGSDKIHHHHHHMNHLNDKVNEIKDNFYGLIGHAYLEKYITKPIVDEDKLRFLYTMLAEKLPKKDTKLFTLSALLVDAALEIHEAVSLHNIQTDPIKKNRQLNVLAGDYYSSLYYYLLADSRHLPIIQVFSHSIQEINEYKMKLYDGKNIDFDEVKNNVDKVDTFLLQNLAEHFQLTTWKKAISVFFHLKRLVHEREAWINGKATPLMKAIVTELFGSNRPVDELKKDDQLQVLELWEEKVEEGKDHLLEHVKALLPKFERFFVDHLNDLFGPDYIHEKVAEEG | not soluble
MGSDKIHHHHHHMIQGKKVVSTLDVSDLEPGKKHLLYFQGVEMPTGQHWHVSVTVAKGAKPGKRGVLVSGVHGDEMSSVHTIQTVMSQLDPAQMSGTVMAVTDVSRPAMEGMQRRWPNFGRGTDLIDMNREWPGNENGVTAASRQAGLLFNRLLRPNADFAIDFHTGTTGFDVAAFNIGGMDVPEIKAMLELYPVGQIFDNHVYPSVLHNAFIAAGIPSFCPEIGAARVLDLEMISLFVEGTMNVLKHHGIVAGPMGRTGKDVHVFVGNSAFPILATAGGLVEHLVKLNDKVEAGQKLAIQRDSFGEVVAEYASGVAGEISGLRSDAMSEPGNPLVFVLFNKPGPEDVGGYPE | not soluble
MGSDKIHHHHHHMNLLEVKSLKARFKRGGFALESVNLTLKKGECVSIVGESGSGKSFLAQLIVRLFPQGSVEVEEGEILFLGENLLDFSQERLEGVRGSEIGFVFQEPLISLNPLHTIEKQLAEAILLHRSLSREELKREIGALYASVGLEALKGRAKIYPHELSGGQRQRVMIAMALANSPKLLIADEPTTALDVSVQKQILDLLFRLKEERGVSLLLISHDLGVVRHYADKVYVMKGGKVVESASKEELFAHPKHPYTQALLSSLHLPLKESPPSRGEILLEAENLDLSFVLKKDWLGRPKEYLRALSSISLRLREGENLGIVGESGSGKSTLALALCKLLSFEGRLRMGHEEMAKMEESRFRPFRSMIQIVFQDPYGSLSPRLSIEEILREGLEVHFPAQKESFERRIIEALEGVGLESSYRYRYPNELSGGQRQRVAIARALILRPKILILDEPTSALDRSIEHQVVALLLELQKRYNLTYLCISHDLRVIGALSDRVAVMKGGRLIEEGETSLILQSPTHPYTQELIGSLLL | not soluble
MGSDKIHHHHHHMERMALHFEILENGKVKCLLCPHECVLDNGQIGLCGVRKNKNGSLVSLNYGEVTAIAMDPIEKKPLFHFNPGEQIFSVGTFGCNFKCGFCQNWEISQAKPETKRVTPEQLVKIAQMNRNSKGIAFTYNEPLVWYEFVLDTSRVAVREGMYCVLVTNGFINEEPLELLFQSVHAMNIDLKGFNRDFYREIGGDLDVVLRNIEKVYNAGIHVELTTLIIPGKNDDKEDLRREFEWIADLDKDIPLHISRYFPNYKYTIPPTPIEELIEIYEMAREYLNFVYLGNVWDERYESTFCPDCGNLVIRRQGYEVEKVGLDEEGKCTKCGRQIATIIG | not soluble
MKRIDLLLNVLDSTFDKESWYAPFKYAIEGLTAEQAMWKPAGETTNTIWENVNHLTYYKERLAANLEGREWTHNLDGNDTFYLTKQSNNDTEWKEVVERSENAQRNLRQVLSAISERELEQNSLEGKLLDIMLHDAYHTGQIIQLRKMQGAWPSKR | not soluble
MAGRAAVPEVIWSRPERTGRGPRPAYTRADIAAAAVRIADADGLDAVSMRRVAGELGCGTMSLYNYVPRKEDLYELMMDAVSGEHELWEPSGDWRADMIRVAHQTRALMHRHTWLPRLMSPVYGFSPNALRYLEHCLACLDPFEAPYGTKMELVAMVNGVVTTYVANEIATVERTRSLPWSEEQENAARIAYLGRQVASGAYPRLAASFAEDAGPIDLEGVFERALARVLDGFA | not soluble
MIEIESLSRKWKNFSLDNLSLKVESGEYFVILGPTGAGKTLFLELIAGFHVPDSGRILLDGKDVTDLSPEKHDIAFVYQNYSLFPHMNVKKNLEFGMRMKKIKDPKRVLDTARDLKIEHLLDRNPLTLSGGEQQRVALARALVTNPKILLLDEPLSALDPRTQENAREMLSVLHKKNKLTVLHITHDQTEARIMADRIAVVMDGKLIQVGKPEEIFEKPVEGRVASFVGFENVLKGRVISAEQGLLRIRVGEVVIDAAGDMEVGDQVYAFLRPENIALSKSSTQSSIRNSLQGRVTEAWVLGALVRVKVDCGVPLNVLITRRSAEEMELSPGVQIYARFKASSVHVLR | soluble
MKREEYLKNYLESYLRKKEVSLTEEEFNVILREFLRFAYNPEESGQEIADTADGSKTLIHKTYGEPYHSQTAGAIRESLYKFVRPSRILEKAKERKVIRILDVGFGLGYNLAVALKHLWEVNPKLRVEIISFEKELLKEFPILPEPYREIHEFLLERVPEYEGERLSLKVLLGDARKRIKEVENFKADAVFHDAFSPYKNPELWTLDFLSLIKERIDEKGYWVSYSSSLSVRKSLLTLGFKVGSSREIGRKRKGTVASLKAPVPPMEENEVRKLVLSPFAVPMRDEKLDKEPLEILIDYLLKVYKISR | soluble
MAQKSALIILAAEGAEEMEVIITGDVLARGEIRVVYAGLDGAEPVKCARGAHIVPDVKLEDVETEKFDIVILPGGQPGSNTLAESLLVRDVLKSQVESGGLIGAICAAPIALLSHGVKAELVTSHPSVKEKLEKGGYKYSEDRVVVSGKIITSRGPGTAFEFALKIVELLEGKDKATSLIAPMLLKL | not soluble
MTIAVSPQALPALVLNADYRPLSYYPLSLWSWQDAIKAVFLDRVNIIAEYDHAVSSPSFSMRLPSVVSLKTYVQPIRNPAFTRFNVFLRDKFECQYCGTRDELTFDHVIPRAHGGETTWHNVVAACSPCNLRKGSKLPKQAGMFPAQKPFQPTVQDLHNNGRLFPPNYLHESWMDYLYWDTELQPLEHHHHHH | not soluble
MTEHVITSKCESPLLQAFVDNYLLLVKIAARIVGCRSRAEDVVQDAFFRLRSAPQATLTFKAQLSYLFQIVRNLAIDHYRKQALEQKYTGPEAEGLNVVIQGASPEISHINFTSLEKIADALSELPPRTRYAFEMYRLHGVPQKDIAKELGVSPTLVNFMIRDALIHCRKVNGTTAEA | not soluble
